Measured values as given in US20180264072A1 (PARIS SCIENCES ET LETTRES QUARTER LATIN, published 2018).

B1: vinculin D1 domain (HVD1) (other)
chain: MPVFHTRTIESILEPVAQQISHLVIMHEEGEVDGKAIPDLTAPVAAVQAAVSNLVRVGKETVQTTEDQILKRDMPPAFIKVENACTKLVQAAQMLQSDPYSVPARDYLIDGSRGILSGTSDLLLTFDEAEVRKIIRVCKGILEYLTVAEVVETMEDLVTYTKNLGPGMTKMAKMIDERQQELTHQEHRVMLVNSMNTVKELLPVLISAMKIFVTTKNSKNQGIEEALKNRNFTVEKMSAEINEIIRVLQLTSWDEDAW
notes: also called D1 domain of vinculin
B2: IpaA 524-633 (A524) (other)
chain: KSKDITKSTTEHRINNKLKVTDANIRNYVTETNADTIDKNHAIYEKAKEVSSALSKVLSKIDDTSAELLTDDISDLKNNNDITAENNNIYKAAKDVTTSLSKVLKNINKD
B3: IpaA 483-633 (A483) (other)
chain: GDTYLTRETIFEASKKVTNSLSNLISLIGTKSGTQERELQEKSKDITKSTTEHRINNKLKVTDANIRNYVTETNADTIDKNHAIYEKAKEVSSALSKVLSKIDDTSAELLTDDISDLKNNNDITAENNNIYKAAKDVTTSLSKVLKNINKD
B4: full-length human vinculin (HV) (other)
chain: MPVFHTRTIESILEPVAQQISHLVIMHEEGEVDGKAIPDLTAPVAAVQAAVSNLVRVGKETVQTTEDQILKRDMPPAFIKVENACTKLVQAAQMLQSDPYSVPARDYLIDGSRGILSGTSDLLLTFDEAEVRKIIRVCKGILEYLTVAEVVETMEDLVTYTKNLGPGMTKMAKMIDERQQELTHQEHRVMLVNSMNTVKELLPVLISAMKIFVTTKNSKNQGIEEALKNRNFTVEKMSAEINEIIRVLQLTSWDEDAWASKDTEAMKRALASIDSKLNQAKGWLRDPSASPGDAGEQAIRQILDEAGKVGELCAGKERREILGTCKMLGQMTDQVADLRARGQGSSPVAMQKAQQVSQGLDVLTAKVENAARKLEAMTNSKQSIAKKIDAAQNWLADPNGGPEGEEQIRGALAEARKIAELCDDPKERDDILRSLGEISALTSKLADLRRQGKGDSPEARALAKQVATALQNLQTKTNRAVANSRPAKAAVHLEGKIEQAQRWIDNPTVDDRGVGQAAIRGLVAEGHRLANVMMGPYRQDLLAKCDRVDQLTAQLADLAARGEGESPQARALASQLQDSLKDLKARMQEAMTQEVSDVFSDTTTPIKLLAVAATAPPDAPNREEVFDERAANFENHSGKLGATAEKAAAVGTANKSTVEGIQASVKTARELTPQVVSAARILLRNPGNQAAYEHFETMKNQWIDNVEKMTGLVDEAIDTKSLLDASEEAIKKDLDKCKVAMANIQPQMLVAGATSIARRANRILLVAKREVENSEDPKFREAVKAASDELSKTISPMVMDAKAVAGNISDPGLQKSFLDSGYRILGAVAKVREAFQPQEPDFPPPPPDLEQLRLTDELAPPKPPLPEGEVPPPRPPPPEEKDEEFPEQKAGEVINQPMMMAARQLHDEARKWSSKGNDIIAAAKRMALLMAEMSRLVRGGSGTKRALIQCAKDIAKASDEVTRLAKEVAKQCTDKRIRTNLLQVCERIPTISTQLKILSTVKATMLGRTNISDEESEQATEMLVHNAQNLMQSVKETVREAEAASIKIRTDAGFTLRWVRKTPWYQ

Tests used:
talin H1-H4 = target: T1, talin H1-H4; assay: size exclusion chromatography; stoichiometry listed for the complex
T1 construct: domain: H1-H4; also called TlnH1-H4; T1nH1-H4
T1 sequence (P26039 482-636): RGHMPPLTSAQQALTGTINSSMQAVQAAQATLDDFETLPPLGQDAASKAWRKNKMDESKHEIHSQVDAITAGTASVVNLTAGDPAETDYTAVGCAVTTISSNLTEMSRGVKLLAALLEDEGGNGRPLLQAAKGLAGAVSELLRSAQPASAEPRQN

[1] = target: B4; assay: solid phase (ELISA) assay, HV coated, A524 in solution
[2] = target: B4; assay: solid phase (ELISA) assay, HV coated, A483 in solution
[3] = target: B1; assay: solid phase (ELISA) assay, HVD1 coated, A483 in solution
[4] = target: B1; assay: size exclusion chromatography; stoichiometry listed for the complex
IpaA 483-633 (A483) = target: B3; assay: solid phase (ELISA) assay, A483 coated, HV in solution
IpaA 524-633 (A524) = target: B2; assay: solid phase (ELISA) assay, A524 coated, HV in solution

With B1 the stoichiometry (talin H1-H4) was 1 molar ratio of the complex (1:1).

B2 was tested, and the “EC50 (read off the curve)” value [1] was ~0.3 nM.

For B3, the “EC50 (read off the curve)” value [2] was 0.2 to 0.3 nM, the “EC50 (read off the curve)” value [3] was ~0.8 nM and the stoichiometry [4] was 1 molar ratio of the complex (1:1).

In the case of B4, the “EC50 (read off the curve)” value (IpaA 483-633 (A483)) is reported as ~5 nM and the “EC50 (read off the curve)” value (IpaA 524-633 (A524)) is reported as ~4 nM.
